Source: US20020193308A1

Target: polyclonal antibodies (lot RF29), raised in rabbits against natural isolate of UK114
Test: competition ELISA: soluble antigen titrated against rabbit antiserum (1:10,000) on plates coated with natural UK114; apparent Ka is the reciprocal of the antigen concentration at the A50 point

Ka: 4.9e+08 M⁻¹
B1: recombinant UK114 (E.coli-derived, SEQ ID NO:1) (protein)
chain: SSLVRRIISTAKAPAAIGPYSQAVLVDRTIYISGQLGMDPASGQLVPGGVVEEAKQALTNIGEILKAAGCDFTNVVKATVLLADINDFSAVNDVYKQYFQSSFPARAAYQVAALPKGGRVEIEAIAVQGPLTTASV
